{"source": "patent US20240261333A1", "about": "“NOVEL TARGETS FOR ENHANCING ANTI-TUMOR IMMUNITY” (THE BROAD INSTITUTE, INC., priority 2021, published 2024)", "key": {"[1]": {"molecular_target": "RPL3 (UniProt P39023)", "assay": "co-IP, anti-FLAG, C-FLAG B3GNT2 cell lysate, mass spectrometry"}, "[2]": {"molecular_target": "RPL19 (UniProt P84098)", "assay": "co-IP, anti-FLAG, C-FLAG B3GNT2 cell lysate, mass spectrometry"}, "[3]": {"molecular_target": "PSMA7 (UniProt O14818)", "assay": "co-IP, anti-FLAG, C-FLAG B3GNT2 cell lysate, mass spectrometry"}, "[4]": {"molecular_target": "RPL27A (UniProt P46776)", "assay": "co-IP, anti-FLAG, C-FLAG B3GNT2 cell lysate, mass spectrometry"}, "[5]": {"molecular_target": "DDX20 (UniProt Q9UHI6)", "assay": "co-IP, anti-FLAG, C-FLAG B3GNT2 cell lysate, mass spectrometry"}, "[6]": {"molecular_target": "HSPB1 (UniProt P04792)", "sequence (P04792 whole entry)": "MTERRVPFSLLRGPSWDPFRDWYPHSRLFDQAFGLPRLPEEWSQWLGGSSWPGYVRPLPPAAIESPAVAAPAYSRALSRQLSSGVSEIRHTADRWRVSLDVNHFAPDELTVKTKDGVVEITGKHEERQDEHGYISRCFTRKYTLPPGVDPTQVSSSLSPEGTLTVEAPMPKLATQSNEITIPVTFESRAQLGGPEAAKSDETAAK", "assay": "co-IP, anti-FLAG, C-FLAG B3GNT2 cell lysate, mass spectrometry"}, "[7]": {"molecular_target": "HNRNPU (UniProt Q00839)", "assay": "co-IP, anti-FLAG, C-FLAG B3GNT2 cell lysate, mass spectrometry"}, "[8]": {"molecular_target": "DNAJA2 (UniProt O60884)", "sequence (O60884 1-409 limits assumed)": "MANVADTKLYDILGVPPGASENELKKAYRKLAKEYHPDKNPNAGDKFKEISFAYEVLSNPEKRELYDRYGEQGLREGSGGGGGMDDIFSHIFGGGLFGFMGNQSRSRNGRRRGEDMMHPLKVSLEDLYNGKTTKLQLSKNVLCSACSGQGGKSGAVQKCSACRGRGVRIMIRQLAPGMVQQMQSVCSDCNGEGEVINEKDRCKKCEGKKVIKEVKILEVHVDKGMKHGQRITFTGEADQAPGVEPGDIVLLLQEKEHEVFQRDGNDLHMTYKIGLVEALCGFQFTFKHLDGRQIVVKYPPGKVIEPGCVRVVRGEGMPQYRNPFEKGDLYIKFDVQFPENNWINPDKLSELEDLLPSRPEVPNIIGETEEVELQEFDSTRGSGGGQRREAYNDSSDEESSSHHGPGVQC", "assay": "co-IP, anti-FLAG, C-FLAG B3GNT2 cell lysate, mass spectrometry"}, "[9]": {"molecular_target": "RPS16 (UniProt P62249)", "assay": "co-IP, anti-FLAG, C-FLAG B3GNT2 cell lysate, mass spectrometry"}, "[10]": {"molecular_target": "TXN (UniProt P10599)", "sequence (P10599 2-105 limits assumed)": "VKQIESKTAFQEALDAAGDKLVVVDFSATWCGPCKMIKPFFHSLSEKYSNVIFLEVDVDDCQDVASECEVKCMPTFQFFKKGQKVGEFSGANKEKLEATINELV", "assay": "co-IP, anti-FLAG, C-FLAG B3GNT2 cell lysate, mass spectrometry"}, "[11]": {"molecular_target": "HBB (human) (UniProt P68871)", "sequence (P68871 2-147 limits assumed)": "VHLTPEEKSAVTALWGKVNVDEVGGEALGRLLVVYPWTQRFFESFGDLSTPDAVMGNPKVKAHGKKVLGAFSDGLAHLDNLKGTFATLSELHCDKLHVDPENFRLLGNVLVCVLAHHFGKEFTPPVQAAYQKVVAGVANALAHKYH", "assay": "co-IP with IgG control, lysate of N-FLAG B3GNT2 cells, mass spectrometry"}, "[12]": {"molecular_target": "CLTC (human) (UniProt Q00610)", "sequence (Q00610 2-1675 limits assumed)": "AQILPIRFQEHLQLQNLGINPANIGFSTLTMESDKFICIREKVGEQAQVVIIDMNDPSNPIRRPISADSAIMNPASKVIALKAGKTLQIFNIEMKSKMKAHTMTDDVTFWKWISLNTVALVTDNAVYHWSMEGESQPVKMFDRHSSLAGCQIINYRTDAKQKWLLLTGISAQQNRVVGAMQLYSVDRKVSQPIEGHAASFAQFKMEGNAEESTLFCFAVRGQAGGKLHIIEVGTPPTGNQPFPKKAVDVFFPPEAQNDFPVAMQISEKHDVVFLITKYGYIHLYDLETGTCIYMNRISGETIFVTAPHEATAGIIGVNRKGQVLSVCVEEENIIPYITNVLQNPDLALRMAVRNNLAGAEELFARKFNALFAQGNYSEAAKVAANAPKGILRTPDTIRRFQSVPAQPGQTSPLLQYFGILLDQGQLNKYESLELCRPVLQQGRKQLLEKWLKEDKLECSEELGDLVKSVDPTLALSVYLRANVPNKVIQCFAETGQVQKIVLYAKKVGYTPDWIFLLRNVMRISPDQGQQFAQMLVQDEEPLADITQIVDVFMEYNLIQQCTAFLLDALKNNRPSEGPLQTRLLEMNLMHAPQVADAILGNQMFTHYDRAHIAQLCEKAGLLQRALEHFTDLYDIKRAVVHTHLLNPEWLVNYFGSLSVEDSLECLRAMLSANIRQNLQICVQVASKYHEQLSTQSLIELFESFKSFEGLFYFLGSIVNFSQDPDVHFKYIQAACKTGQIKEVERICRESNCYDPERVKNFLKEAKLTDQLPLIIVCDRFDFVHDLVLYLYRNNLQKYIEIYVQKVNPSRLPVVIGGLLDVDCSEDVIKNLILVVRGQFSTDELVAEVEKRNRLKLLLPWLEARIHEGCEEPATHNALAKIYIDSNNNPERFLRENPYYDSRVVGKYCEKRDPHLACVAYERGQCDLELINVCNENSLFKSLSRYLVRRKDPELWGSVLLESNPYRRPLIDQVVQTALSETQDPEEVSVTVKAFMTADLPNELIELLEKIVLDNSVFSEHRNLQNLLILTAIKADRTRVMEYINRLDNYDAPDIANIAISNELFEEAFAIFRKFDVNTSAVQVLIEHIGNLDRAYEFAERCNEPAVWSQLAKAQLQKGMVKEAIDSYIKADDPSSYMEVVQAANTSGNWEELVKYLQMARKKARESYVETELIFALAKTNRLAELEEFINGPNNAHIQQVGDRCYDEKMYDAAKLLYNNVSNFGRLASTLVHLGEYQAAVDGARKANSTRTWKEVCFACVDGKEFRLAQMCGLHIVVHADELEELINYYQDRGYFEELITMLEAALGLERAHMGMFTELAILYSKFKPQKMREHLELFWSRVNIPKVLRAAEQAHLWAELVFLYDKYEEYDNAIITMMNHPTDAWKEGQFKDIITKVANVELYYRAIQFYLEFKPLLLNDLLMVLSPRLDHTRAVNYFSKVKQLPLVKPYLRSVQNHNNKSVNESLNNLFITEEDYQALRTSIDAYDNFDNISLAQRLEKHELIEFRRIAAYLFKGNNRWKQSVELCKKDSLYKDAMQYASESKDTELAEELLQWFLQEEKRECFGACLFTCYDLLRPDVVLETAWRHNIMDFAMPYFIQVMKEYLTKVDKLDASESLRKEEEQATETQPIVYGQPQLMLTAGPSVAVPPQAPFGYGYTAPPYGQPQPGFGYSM", "assay": "co-IP with IgG control, lysate of N-FLAG B3GNT2 cells, mass spectrometry"}, "[13]": {"molecular_target": "MMP14 (human) (UniProt P50281)", "assay": "co-IP with IgG control, lysate of N-FLAG B3GNT2 cells, mass spectrometry"}, "[14]": {"molecular_target": "PRRC2C (human) (UniProt Q9Y520)", "assay": "co-IP with IgG control, lysate of N-FLAG B3GNT2 cells, mass spectrometry"}, "[15]": {"molecular_target": "JUP (human) (UniProt P14923)", "assay": "co-IP with IgG control, lysate of N-FLAG B3GNT2 cells, mass spectrometry"}, "[16]": {"molecular_target": "ARPC1B (human) (UniProt O15143)", "assay": "co-IP with IgG control, lysate of N-FLAG B3GNT2 cells, mass spectrometry"}, "[17]": {"molecular_target": "RPL7A (human) (UniProt P62424)", "assay": "co-IP with IgG control, lysate of N-FLAG B3GNT2 cells, mass spectrometry"}, "[18]": {"molecular_target": "XPOT (human) (UniProt O43592)", "assay": "co-IP with IgG control, lysate of N-FLAG B3GNT2 cells, mass spectrometry"}, "[19]": {"molecular_target": "RPL6 (human) (UniProt Q02878)", "assay": "co-IP with IgG control, lysate of N-FLAG B3GNT2 cells, mass spectrometry"}, "[20]": {"molecular_target": "SPARC (human) (UniProt P09486)", "sequence (P09486 18-303 limits assumed)": "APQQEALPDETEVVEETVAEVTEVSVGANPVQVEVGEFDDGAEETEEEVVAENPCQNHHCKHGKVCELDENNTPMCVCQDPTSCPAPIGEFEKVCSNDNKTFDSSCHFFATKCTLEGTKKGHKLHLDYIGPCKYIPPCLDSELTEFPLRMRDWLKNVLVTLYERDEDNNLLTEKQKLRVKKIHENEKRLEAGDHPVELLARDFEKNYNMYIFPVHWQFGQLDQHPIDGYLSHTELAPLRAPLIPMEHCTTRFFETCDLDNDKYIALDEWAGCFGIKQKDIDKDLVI", "assay": "co-IP with IgG control, lysate of N-FLAG B3GNT2 cells, mass spectrometry"}, "[21]": {"molecular_target": "NAP1L1 (human) (UniProt P55209)", "assay": "co-IP with IgG control, lysate of N-FLAG B3GNT2 cells, mass spectrometry"}, "[22]": {"molecular_target": "DDX3X (human) (UniProt O00571)", "sequence (O00571 2-662 limits assumed)": "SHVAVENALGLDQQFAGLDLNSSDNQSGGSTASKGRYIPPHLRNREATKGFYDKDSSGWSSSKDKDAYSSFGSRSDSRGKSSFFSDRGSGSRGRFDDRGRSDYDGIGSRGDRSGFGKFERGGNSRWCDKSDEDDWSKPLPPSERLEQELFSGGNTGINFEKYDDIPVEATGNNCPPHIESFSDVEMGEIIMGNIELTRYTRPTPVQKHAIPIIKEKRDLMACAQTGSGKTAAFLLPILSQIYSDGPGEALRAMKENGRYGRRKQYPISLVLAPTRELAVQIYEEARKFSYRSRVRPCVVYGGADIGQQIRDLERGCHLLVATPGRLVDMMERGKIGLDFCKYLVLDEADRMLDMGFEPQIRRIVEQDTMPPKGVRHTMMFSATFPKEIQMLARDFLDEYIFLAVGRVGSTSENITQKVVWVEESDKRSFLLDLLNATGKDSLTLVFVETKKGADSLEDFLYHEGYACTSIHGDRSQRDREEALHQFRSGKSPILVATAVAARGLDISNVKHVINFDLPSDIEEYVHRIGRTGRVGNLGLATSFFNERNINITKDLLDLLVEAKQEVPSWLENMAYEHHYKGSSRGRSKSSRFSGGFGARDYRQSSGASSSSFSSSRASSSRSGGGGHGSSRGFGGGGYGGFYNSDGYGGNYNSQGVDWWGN", "assay": "co-IP with IgG control, lysate of N-FLAG B3GNT2 cells, mass spectrometry"}, "[23]": {"molecular_target": "RUVBL2 (human) (UniProt Q9Y230)", "assay": "co-IP with IgG control, lysate of N-FLAG B3GNT2 cells, mass spectrometry"}, "[24]": {"molecular_target": "HNRNPH1 (human) (UniProt P31943)", "assay": "co-IP with IgG control, lysate of N-FLAG B3GNT2 cells, mass spectrometry"}, "[25]": {"molecular_target": "COPA (human) (UniProt P53621)", "assay": "co-IP with IgG control, lysate of N-FLAG B3GNT2 cells, mass spectrometry"}, "[26]": {"molecular_target": "PSMA3 (human) (UniProt P25788)", "assay": "co-IP with IgG control, lysate of N-FLAG B3GNT2 cells, mass spectrometry"}, "[27]": {"molecular_target": "XPO1 (human) (UniProt O14980)", "assay": "co-IP with IgG control, lysate of N-FLAG B3GNT2 cells, mass spectrometry"}, "[28]": {"molecular_target": "TGM1 (human) (UniProt P22735)", "assay": "co-IP with IgG control, lysate of N-FLAG B3GNT2 cells, mass spectrometry"}, "[29]": {"molecular_target": "LAMC1 (human) (UniProt P11047)", "assay": "co-IP with IgG control, lysate of N-FLAG B3GNT2 cells, mass spectrometry"}, "[30]": {"molecular_target": "PURA (human) (UniProt Q00577)", "assay": "co-IP with IgG control, lysate of N-FLAG B3GNT2 cells, mass spectrometry"}, "[31]": {"molecular_target": "TM9SF1 (human) (UniProt O15321)", "assay": "co-IP with IgG control, lysate of N-FLAG B3GNT2 cells, mass spectrometry"}, "[32]": {"molecular_target": "PSMB5 (human) (UniProt P28074)", "sequence (P28074 60-263 limits assumed)": "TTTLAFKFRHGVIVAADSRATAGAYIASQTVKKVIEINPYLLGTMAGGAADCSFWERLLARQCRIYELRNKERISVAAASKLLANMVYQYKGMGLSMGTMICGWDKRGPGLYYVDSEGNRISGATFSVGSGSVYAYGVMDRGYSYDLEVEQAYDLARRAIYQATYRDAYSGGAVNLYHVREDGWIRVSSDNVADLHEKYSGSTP", "assay": "co-IP with IgG control, lysate of N-FLAG B3GNT2 cells, mass spectrometry"}, "[33]": {"molecular_target": "P0AA25.2 [thioredoxin: P0AA25]", "assay": "co-IP with IgG control, lysate of N-FLAG B3GNT2 cells, mass spectrometry"}, "[34]": {"molecular_target": "SBSN (human) (UniProt Q6UWP8)", "sequence (Q6UWP8 26-590 limits assumed)": "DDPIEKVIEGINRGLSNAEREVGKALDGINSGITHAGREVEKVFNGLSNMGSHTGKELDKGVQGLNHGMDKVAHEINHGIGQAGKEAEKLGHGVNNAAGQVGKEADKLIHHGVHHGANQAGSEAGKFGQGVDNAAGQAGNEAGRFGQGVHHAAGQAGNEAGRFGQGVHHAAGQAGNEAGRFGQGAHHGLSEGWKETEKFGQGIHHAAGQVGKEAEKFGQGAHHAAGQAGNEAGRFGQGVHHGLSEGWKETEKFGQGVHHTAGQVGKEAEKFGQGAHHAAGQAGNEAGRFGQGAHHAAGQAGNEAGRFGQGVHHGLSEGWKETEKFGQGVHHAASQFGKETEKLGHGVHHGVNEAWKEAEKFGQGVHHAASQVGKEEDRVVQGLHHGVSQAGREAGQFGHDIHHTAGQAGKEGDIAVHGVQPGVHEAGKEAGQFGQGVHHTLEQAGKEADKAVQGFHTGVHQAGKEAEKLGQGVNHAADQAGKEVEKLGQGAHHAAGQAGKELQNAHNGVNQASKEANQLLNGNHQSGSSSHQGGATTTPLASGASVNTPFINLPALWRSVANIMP", "assay": "co-IP with IgG control, lysate of N-FLAG B3GNT2 cells, mass spectrometry"}, "[35]": {"molecular_target": "RBM14 (human) (UniProt Q96PK6)", "assay": "co-IP with IgG control, lysate of N-FLAG B3GNT2 cells, mass spectrometry"}, "[36]": {"molecular_target": "LUC7L3 (human) (UniProt O95232)", "assay": "co-IP with IgG control, lysate of N-FLAG B3GNT2 cells, mass spectrometry"}, "[37]": {"molecular_target": "CPSF7 (human) (UniProt Q8N684)", "assay": "co-IP with IgG control, lysate of N-FLAG B3GNT2 cells, mass spectrometry"}, "[38]": {"molecular_target": "DDX17 (human) (UniProt Q92841)", "sequence (Q92841 whole entry)": "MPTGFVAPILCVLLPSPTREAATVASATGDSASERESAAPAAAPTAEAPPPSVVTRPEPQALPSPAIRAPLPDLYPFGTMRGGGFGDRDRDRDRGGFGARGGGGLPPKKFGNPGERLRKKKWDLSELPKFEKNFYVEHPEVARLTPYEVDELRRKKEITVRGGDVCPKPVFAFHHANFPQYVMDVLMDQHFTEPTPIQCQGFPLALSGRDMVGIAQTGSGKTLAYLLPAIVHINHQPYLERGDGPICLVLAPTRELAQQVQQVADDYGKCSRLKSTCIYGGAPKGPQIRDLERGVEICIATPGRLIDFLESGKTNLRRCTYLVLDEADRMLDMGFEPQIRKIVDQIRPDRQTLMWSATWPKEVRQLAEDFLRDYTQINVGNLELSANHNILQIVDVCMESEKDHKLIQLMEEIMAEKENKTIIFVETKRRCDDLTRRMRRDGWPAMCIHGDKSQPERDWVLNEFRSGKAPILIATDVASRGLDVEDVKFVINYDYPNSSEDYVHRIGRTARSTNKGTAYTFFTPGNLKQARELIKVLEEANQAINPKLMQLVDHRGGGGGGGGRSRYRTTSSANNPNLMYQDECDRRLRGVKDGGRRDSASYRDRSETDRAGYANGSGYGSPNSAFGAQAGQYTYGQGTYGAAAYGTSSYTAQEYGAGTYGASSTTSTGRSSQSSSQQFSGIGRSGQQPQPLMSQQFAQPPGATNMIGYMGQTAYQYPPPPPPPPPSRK", "assay": "co-IP with IgG control, lysate of N-FLAG B3GNT2 cells, mass spectrometry"}}}
{"substance": "C-terminal FLAG tagged B3GNT2 (from UniProt Q9NY97 1-397) (enzyme)", "values": [{"measurement": "co-IP mass spectrometry count", "setting": "[1]", "value": 25}, {"measurement": "co-IP mass spectrometry count", "setting": "[2]", "value": 11}, {"measurement": "co-IP mass spectrometry count", "setting": "[3]", "value": 2}, {"measurement": "co-IP mass spectrometry count", "setting": "[4]", "value": 10}, {"measurement": "co-IP mass spectrometry count", "setting": "[5]", "value": 6}, {"measurement": "co-IP mass spectrometry count", "setting": "[6]", "value": 4}, {"measurement": "co-IP mass spectrometry count", "setting": "[7]", "value": 12}, {"measurement": "co-IP mass spectrometry count", "setting": "[8]", "value": 3}, {"measurement": "co-IP mass spectrometry count", "setting": "[9]", "value": 20}, {"measurement": "co-IP mass spectrometry count", "setting": "[10]", "value": 3}]}
{"substance": "IgG control (Millipore Sigma 12-371) (antibody)", "values": [{"measurement": "co-IP/MS count, N-term IgG", "setting": "[11]", "value": 0}, {"measurement": "co-IP/MS count, N-term IgG", "setting": "[12]", "value": 6}, {"measurement": "co-IP/MS count, N-term IgG", "setting": "[13]", "value": 0}, {"measurement": "co-IP/MS count, N-term IgG", "setting": "[14]", "value": 11}, {"measurement": "co-IP/MS count, N-term IgG", "setting": "[15]", "value": 39}, {"measurement": "co-IP/MS count, N-term IgG", "setting": "[16]", "value": 2}, {"measurement": "co-IP/MS count, N-term IgG", "setting": "[17]", "value": 4}, {"measurement": "co-IP/MS count, N-term IgG", "setting": "[18]", "value": 0}, {"measurement": "co-IP/MS count, N-term IgG", "setting": "[19]", "value": 5}, {"measurement": "co-IP/MS count, N-term IgG", "setting": "[20]", "value": 0}, {"measurement": "co-IP/MS count, N-term IgG", "setting": "[21]", "value": 0}, {"measurement": "co-IP/MS count, N-term IgG", "setting": "[22]", "value": 19}, {"measurement": "co-IP/MS count, N-term IgG", "setting": "[23]", "value": 0}, {"measurement": "co-IP/MS count, N-term IgG", "setting": "[24]", "value": 11}, {"measurement": "co-IP/MS count, N-term IgG", "setting": "[25]", "value": 0}, {"measurement": "co-IP/MS count, N-term IgG", "setting": "[26]", "value": 0}, {"measurement": "co-IP/MS count, N-term IgG", "setting": "[27]", "value": 0}, {"measurement": "co-IP/MS count, N-term IgG", "setting": "[28]", "value": 9}, {"measurement": "co-IP/MS count, N-term IgG", "setting": "[29]", "value": 0}, {"measurement": "co-IP/MS count, N-term IgG", "setting": "[30]", "value": 2}, {"measurement": "co-IP/MS count, N-term IgG", "setting": "[31]", "value": 0}, {"measurement": "co-IP/MS count, N-term IgG", "setting": "[32]", "value": 0}, {"measurement": "co-IP/MS count, N-term IgG", "setting": "[33]", "value": 3}, {"measurement": "co-IP/MS count, N-term IgG", "setting": "[34]", "value": 25}, {"measurement": "co-IP/MS count, N-term IgG", "setting": "[35]", "value": 4}, {"measurement": "co-IP/MS count, N-term IgG", "setting": "[36]", "value": 2}, {"measurement": "co-IP/MS count, N-term IgG", "setting": "[37]", "value": 8}, {"measurement": "co-IP/MS count, N-term IgG", "setting": "[38]", "value": 23}]}
